Experiment: label from the status in PepcDB records

For “MSAVKSVSSFRLASLLRRENDPSAAMKLFRNPDPESTNPKRPFRYSLLCYDIIITKLGGSKMFDELDQVLLHLKTDTRIVPTEIIFCNVINFFGRGKLPSRALHMFDEMPQYRCQRTVKSLNSLLSALLKCGELEKMKERLSSIDEFGKPDACTYNILIHGCSQSGCFDDALKLFDEMVKKKVKPTGVTFGTLIHGLCKDSRVKEALKMKHDMLKVYGVRPTVHIYASLIKALCQIGELSFAFKLKDEAYEGKIKVDAAIYSTLISSLIKAGRSNEVSMILEEMSEKGCKPDTVTYNVLINGFCVENDSESANRVLDEMVEKGLKPDVISYNMILGVFFRIKKWEEATYLFEDMPRRGCSPDTLSYRIVFDGLCEGLQFEEAAVILDEMLFKGYKPRRDRLEGFLQKLCESGKLEILSKVISSLHRGIAGDADVWSVMIPTMCKEPVISDSIDLLLNTVKEDGPLSAMPQC”, the protein production was “failed”.
In the case of “MSAVVAQTLHVFGLRSHVANNIFYFDEQIIIFPSGNHCVKYNVDQKWQKFIPGSEKSQGMLALSISPNRRYLAISETVQEKPAITIYELSSIPCRKRKVLNNFDFQVQKFISMAFSPDSKYLLAQTSPPESNLVYWLWEKQKVMAIVRIDTQNNPVYQVSFSPQDNTQVCVTGNGMFKLLRFAEGTLKQTSFQRGEPQNYLAHTWVADDKIVVGTDTGKLFLFESGDQRWETSIMVKEPTNGSKSLDVIQESESLIEFPPVSSPLPSYEQMVAASSHSQMSMPQVFAIAAYSKGFACSAGPGRVLLFEKMEEKDFYRESREIRIPVDPQSNDPSQSDKQDVLCLCFSPSEETLVASTSKNQLYSITMSLTEISKGEPAHFEYLMYPLHSAPITGLATCIRKPLIATCSLDRSIRLWNYETNTLELFKEYQEEAYSISLHPSGHFIVVGFADKLRLMNLLIDDIRSFKEYSVRGCGECSFSNGGHLFAAVNGNVIHVYTTTSLENISSLKGHTGKIRSIVWNADDSKLISGGTDGAVYEWNLSTGKRETECVLKSCSYNCVTVSPDAKIIFAVGSDHTLKEIADSLILREISAFDVTYTAIVISHSGRMMFVGTSVGTIRAMKYPLPLQKEFNEYQAHAGPITKVSRTLSPGTQSHTCLLRALFIPSTSQCLFSLLLLSYLFIHHSLNHHLLTMNILFV”, the protein production is reported as “failed”.
For “MSAWTMSDPYPATEAHAQRAAKSSPKSLLDRLLSLVRREPEDREGIKAILEAAHERELLDAESYAMIKGALAVSERTVADIMVPRSRMDLLDISQPLPQLLATIIETAHSRFPVYEDDRDNIIGILLAKDLLRYMLEPALDIRSLVRPAVFIPEVKRLNVLLREFRASRNHLAIVIDEHGGISGLVTMEDVLEQIVGDIEDEFDEDEEESIFPEGENQWRLTASTDISHFNATFATDLPDDEYDSVGGWLGGQLGRIPRRGDSADHDGLHIEVVRADARRALWLRVRRNAGAQPPASAAE”, the protein production was “not failed”.
With “MSCGYTGPINEQNKENIKRAIAMHAAARRTRMLQQLREGLQLYRLVDIMEKNKEVCRSHFVFEGGNDQVDSQYIVSHLDPKMSESGTLKHSKEMQILNNFQDFLMELEDGGPEDEEALCVSKVMQWLSGQAHVHLLLSERQAFKITVLFDHTCMERMPDHRICYPVDSAWTQTITFPTAHSTSLNQFKENMRIAVQQGAYFYRV” the protein production was “failed”.
In the case of “MSDAAEIRMDAGALNAFLHRAFPEVDPEQMPQVLEVEAGRALLKLPYASRQLRPGGVISGPTMMSLADTAAYAMILARIGEVALSVTTSLNIHFLRGCKPGDLYAEATLLKLGRRIATVDVLMWTQGRERAAAKATVAYAIP”, the protein production is reported as “failed”.
For “MSDAHKSDLYLVLVTLLAAIGWMLSKEAVLMMPPLMFMAARFLIAGAFLALLALPSLLRLSRDQILRSLGVGFVFGIAMTCWIMGLYHTDSMGEGAFLTSLGVVIVPIIARTVFGEQQPLSTWLAIPIAVAGLALLSLENGFRPDPGQLYFVLAATIFALYFTLNTRAANQRIVVDKQGKTVEKKKVPALPLTAIALLTVGTVTLAESAISERWTHILTNPEPMLYVWVLASALIATAARFLLQTYAQSLSVNSHGVVILVLEPVWVAVFAVAWFGETMTLLQIAGCALIFAALLVNRWNALSRAIKALMKAKNPRQRG”, the protein production was “failed”.
With “MSDAPTVVAYLGPAGTFTEEALYKFADAGVFGDGEIEQLPAKSPQEAVDAVRHGTAQFAVVAIENFVDGPVTPTFDALDQGSNVQIIAEEELDIAFSIMVRPGTSLADVKTLATHPVGYQQVKNWMATTIPDAMYLSASSNGAGAQMVAEGTADAAAAPSRAAELFGLERLVDDVADVRGARTRFVAVQAQAAVSEPTGHDRTSVIFSLPNVPGSLVRALNEFAIRGVDLTRIESRPTRKVFGTYRFHLDISGHIRDIPVAEALRALHLQAEELVFVGSWPSNRAEDSTPQTDQLAKLHKADEWVRAASEGRKLN” the protein production was “not failed”.
With “MSDCLFDLHIGYVRFKNPIALAPMAGIVDSAFANQYASNAGLVILGAFNLDKASIAVASALVARGRKEFISDEPMEFMKKEIRAVTSGSAVAVNVRSTTLEPLIEAAKIVKEEGAILELNAHCRQPEMLEAGLGEALLHDLPKLSAWIRAIKETGVVLSVKVRANVVNDIELARLIDKAGADIIHVDAEMEGFGADLDAILNYRDATRLFLIGNNSVKDFEAAKEMFTRGADMVSAARGVLENSGLIQELVENVTSYQQSIGWYNAPKHVCSEGDFRGLAFCCLPVKPCPVHEKFQKLGYTAEEFARTKLDFAKGTMLEYGEDTCFGSLVWCCKITKPCWIRDGVLNTIGLSDTEYMKLKKQLAEYVLDHARIPVNESQ” the protein production was “failed”.
For “MSDEVPEILLAHYLKTLKLPTFQREYQKLARLCATEGVDHVEYLLRLSEREMIERDRRKVERRIKAARFPVVKSLDSFDFAAIPKLNKMQVLELARCEWIERRENVIALGPSGTGKTHVALGLGLAACQKGLSVGFTTAAALVSEMMEARDERRLLRFQKQMAAYQLLIIDELGFVPLSKTGAELLFELISQRYERGATLITSNLPFDEWTETLGSERLTGALLDRITHHVNILEMNGDSYRLAQSRARKAGLEHHHHHH”, the protein production was “not failed”.
For “MSDHNNKGRQQDVKALPRRVDERLNLSRHKEVKPSRLHDEVHRIVYELEARQLELEMQQENMLQSKEEMECLLKRYVEHYDIAPHSYMTISREGSILEANLTAAKNLGQDRALLKGDLLEKFIADKDRPVFKAFLERVFRGQTNAFCEVKLFNNQASQARGSAEADRYETVIEERMVRFDAALSNDGEECYIYITVSDRGSQNELEGQNTFFTDRLKDDIADMPDSDKVDFNYQLFDSVIHTRIRLAALSYLYTVKQACFVEIRDKIKASDGSLSVHMRMLESAGYISCDKEFLARKPQTVYRITPLGHDAFLKYSDIVFSLIAKKQEAS”, the protein production was “failed”.
In the case of “MSDHVCQEGCRHHSHGEDSPEIQQEFQEGRRDFMRDFAVGGVLASAASLGISSSAFGQTMPKTGLTSGHATHYYIPASDKTVSWGFFSKSLKPVVELESGDFATIETLTHHSNDDASLMVKGDPGAESVFYWDSKRKNVDRRGMGPMDHKLGAGGGMGVHILTGPVAIKGAEPGDVLEVRIVDVALRPSANPEFKGKTFGSNVAANWGFHYNELIEEPKKREVVTIYELDATGERNWARAFYNYRWTPQKDPFGVVHPIVDYPGVPVDHSTISKNYNVLKNIRVPVRPHFGTMGLAPKEADLVNSVPPSHFGGNIDNWRIGKGATMYYPVSVAGGLFSVGDPHASQGDSEMCGTAIECSLTGTFQFILHKKADLPGTPLADLQYPLLETQDEWVLHGFSYANYLAELGPDAQNSIFSKSSLDLALKDAFRKMRHFLMQTQNLTEDEAVSLMSIGVDFGITQVVDGNWGVHAVVKKGIFPGRDV”, the protein production is reported as “not failed”.
In the case of “MSDIAVRPIRAEDVPQACAILNRIIEIGGTTAFEQPVSEDEFDAWYVNGADLICCHVALDAAGAVAGFQWLGRNDSLPEGCGDIASFTRREPVLRGAGRALFACTVAVARDRGLAEINATIRADNALGLAYYGKMGFRDHVVTPAVPLRDGRPVDRISKRFDLRG”, the protein production is reported as “failed”.
With “MSDIKHEKKLANMDTPGETTKSFENKLDEEIPDIEESDFINSPPFSDEIFSPEDSKQVEISELSKQAYSLLKGNSITEAINVFKKILELDPTNNYALVGLGDAERKNNKFNEAIKFYKQCLEHHPSNNYALFGLADCYKSMNQFPRAIAIWEEYLKFDDKNITVLTRVADAYRKTKEFEKAEKLYQKVLEKSPKNAYALIGLGHLNYDFKKYREALVYWEKVMESSGELVDIRILTSIGNCYRKMKLFDRGVYYFERALERSPDNFYGLFGLADCYRGLNQQYNSIVYWKKILELDPNNKVILTRIGDAYRSMNDFEKAKESYQKALDIDFDSYAMLGLAILCKLQQKYDQAITTLTHLKDTGDTNYNYRVYLELAQCYIEKKEKQKAIETLIDFQKLGIKNQTVSDLLFELTKNDH” the protein production was “failed”.
For “MSDIKKLGSSWIINWFFGFNQIPTNEDSSIYMKSVLTCAKADGVISPEEKDWALGFCASWGVADWVIEDLKTYEADEALEEVIARSPQVSMAQRDILLSAIWVSAADGELHEKEKAKIRKMATILGIKEEIVDQLEQLYYYEAALRQKRLNLLYPQKSPY”, the protein production was “not failed”.
For “MSDIQVRHVEADKQFVIAVDGEDAGFAGYAERDGHRNFNHTVIDPRFRGQGLSQPLIQQALEATHADGLGVIATCSAVVGFVQKNPEFRDYLA”, the protein production was “failed”.
With “MSDKHDVIVAGAGPAGAQCARDLAERGYDVVVLEAEPEDEFPRQSNKSTAGTFASMMGAFGVPDDVVMQYTDDVVLESPHEYFVQDQPGAVLEFAEFKQWLVAAGEQQGAEYRFEARVNNPITEGGEIVGVKYDGDEEVYGDIIIDATGPAAPLAKKLGVTDLRRSNQAIGIEWEMENVAVDHEGYADLSDAMMLRLDHDLAPGGYSWIFHTGADTAKVGICYIQNESYQRFGDASKSIDDHLDYWMETDPRLADATKLAGKQHRGSAHIQLPANFSTDNFMAIGDTVPTVDPLWGEGIHKCMESARAAAITADRCFMGDDRDTSADALSIYDDLWHKRVAPNARMRLTMTQLLYLASNERYDRLMSDLQTADVGTLSGANEGGLRSLLEFVHTEDVPLLARFARDRLRA” the protein production was “failed”.
For “MSDLITLAQLSQGYRYNSDSLILADFILKQGIKGAVFDVGAGCGIIGILLKKNIANLSLSLIDIQKENIELIEKNLKSNKIQGDIFHDDFNQFQIIKKFDFIVCNPPFYRQGAYKSEDQHKAISKFQEFLPLHSFLAKTNSMLKPNGTLYFCYEALALDEICFILKDMKMKITKLCFVHTHQSKKARLVLIQVKKGSKSPCEILPPFFVYENEILSKQMQEIHLRFRLKSYDI”, the protein production was “failed”.
With “MSDLLDTVRGLAKKTDSKILMVVLDGVGGLPLTVNGDTELATARTPNLDALAQESQLGQLELVGAGITPGSGPGHLSLFGYDPLKYVVGRGALSAVGIGVKLNRGDVAVRGNFATLGAGRLILDRRAGRPSDEKNAEIVAKLRAAIPEIDGVAVEVYTESEHRFVVVFRAPEGQPLGANISDVDPQVTGVEPKTAIANDPSSEVTAGLINTFVARAEVALADEPQVNGVLFRGYSDVPHFPSFEDAYQLKAACIASYPMYKGLASLVGMDVLPVEGHEDALEGKVKALRENWAKYDFFYFHIKKTDSTGEDGDFAEKVHKIELFDELLPQLLELQPDVIAVVGDHSTPSKLKSHSWHPVPLLIRSNYGRRDPAQRYTEEEAARGTLGLRHGPDLMPLLMANALKLNKYGALEHHHHHH” the protein production was “not failed”.
